# Measured values published in the supplement of paper PMC9170038.
# System: MS2 coat protein
# Assay: apparent KD of MS2 coat protein; designed switch direction (-1 OFF switch, 1 ON switch): -1; higher = weaker reporter binding
# Outline: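 Designed RNA switches were transcribed on Illumina chips by stalled E. coli RNA polymerase and titrated with SNAP-549-labelled MS2 coat protein from 0.7 or 1.5 nM, doubling to 3 µM. Step length ran from 0.8–1.5 h at the lowest concentration to 10–20 min at the highest. The apparent KD is the median over clusters for each design, from curve-fitted normalised cluster fluorescence.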
# [1] = Eterna round: R95, input ligand: microRNA oligo, concentration not stated
# [2] = input ligand: microRNA oligo, concentration not stated
# [3] = Eterna round: R95, input ligand: FMN 200 uM
# [4] = Eterna round: R95, input ligand: none
Sequence,apparent KD of MS2 coat protein [1],apparent KD of MS2 coat protein (input ligand: FMN 200 uM),apparent KD of MS2 coat protein [2],apparent KD of MS2 coat protein (input ligand: none),apparent KD of MS2 coat protein [3],apparent KD of MS2 coat protein [4]
UGAUCUUUUGUUAGGAUAUGCUGUUUUUUUUUACAGCAGAAGGGACAUGAGGAUCACCCAUGUCUUGUCAUAAA [Magic-05] (puzzle: Brourd's mod of Exclusion 4),12.4 nM,,,,,
CCUGCACAUGAGGAUCACCCAUGUCAGGAUAUCUCGCCGUGAAGAGCAACACGGUAUUAGAGAAGGGACACGGG [Tixe] (puzzle: Exclusion 1),20.7 nM,,,,,
"CGAUGCUCGAGUCGACAUGAGGAUCACCCAUGUACAGUUAGUGAGGAUAUCGGAGACACAUAGUAUGAGAAGGCGCGAACGUGA [Ex NG3 #16] (Eterna round: R96, puzzle: Exclusion NG 3)",,76.7 nM,41.4 nM,40.3 nM,,
"AGUACUAACACGAGAGUGUUAGUACUAUAAGCUUGUGAAACAUGAGGAUCACCCAUGUCCUCAUAAGCUCGUCUUAU [Mat - Sensor v3 - Turn-off var 2 - D103] (puzzle: Sensor v3, turn-off variant 2)",682 nM,,,,15.3 nM,12.5 nM
CAUCCACAUGAGGAUCACCCAUGUCAGGAUAUCGCGCGCGCGUUUUCGGUCUUUCGCGCGAGAAGGGACGACUG (puzzle: Exclusion 1),13.3 nM,,,,,
"ACAUGAGGAUCACCCAUGUAAACGUAAUGGCUCAUGUAGAGUCAGGAUAUGCGUGGCGAACUCGCGCAGAAGGGACAAGACUGG [Deportation 22 - Jieux - Exclusion NG 3] (Eterna round: R96, puzzle: Exclusion NG 3)",,30.4 nM,23.7 nM,28.6 nM,,
"AUAUAGAUAGUCAGGAUAUGCUAGUGAUAACAGUAGUAGAAGGGACAUGAGGAUCACCCAUGUAGAUAGUGCAC [Brourd's EX4 #4] (Eterna round: R97, puzzle: Brourd's mod of Exclusion 4)",,32.6 nM,,22.5 nM,,
CUAGUCCGAGGAUAUAUUAAGUGAUACAUGAGGAUCACCCAUGUUAUUUAAUGGAUGUUAAUAGAAGGCGGACUAG [Mat - Exclusion 5 - JL mod - D76] (puzzle: Exclusion 5),37.7 nM,,,,55 nM,77.8 nM
GUGGCAUGAGGAUAUCGAGGUUAGUACAUGAGGAUCACCCAUGUUAUCCAGGUGUCGGUUCGAGAAGGCAUGGCAC [LRO-Ex5-13] (puzzle: Exclusion 5),250 nM,,,,,
CUGGUCCGAGGAUAUAUUAUGUGAAACAUGAGGAUCACCCAUGUAAUAUGAUGGAAAUAAAUAGAAGGCGGACUAG [Mat - Exclusion 5 - JL mod - D32] (puzzle: Exclusion 5),34.5 nM,,,,26 nM,43.5 nM
AGAAAGCAAGGAUAUACAAGGAAACGACGGAAAGUAGAGAGACAUGAGGAUCACCCAUGUAGAAGGUGCGAGAA [JR_Exclu2_Sub032] (puzzle: Exclusion 2),28.7 nM,,,,33.8 nM,26.5 nM
"UUUACAAGCUUAAGAUCCCACAUGAGGAUCACCCAUGUUGCUGCCGUGAGGUAGCUUUUAACUUAUGCUCGUCUUAU [JL TOV1 3.42] (Eterna round: R97, puzzle: Sensor, turn-off variant 1)",,94 nM,,110 nM,,
"UUGUACAUAGGAUAUAGUUGUUUGUACAUGAGGAUCACCCAUGUUAUGUAUGUUUUGCUUCUAGAAGGAUGUUGUU [JR_E5_Sub004] (Eterna round: R96, puzzle: Exclusion 5)",,28.5 nM,25.8 nM,34.5 nM,,
"CCCUCACUUGAGGAUCACCCAAGUCAGGAUAUCUCACCCAUCCUACGGGACGGGUCACAGAGAAGGGACUAAAA [Isdius] (Eterna round: R97, puzzle: Exclusion 1)",,37.3 nM,,20 nM,,
"GGACCUGGAGGAUAUAGAGCACUGAACAUGAGGAUCACCCAUGUGACCGGUGUAGUGCACCUAGAAGGCCGCGGCA [Eternabot (L1) Solution 40] (Eterna round: R97, puzzle: Exclusion 5)",,129 nM,,65.4 nM,,
GGUGGACAUGAGGAUCACCCAUGUGAGGAUAUCGGCUAUCUUGUCGCUGUCGGUUGCUCGAGAAGGCACAUUGU [Exclusion 1 V95] (puzzle: Exclusion 1),69.2 nM,,,,,
AAACACUUAGGAUAUACAUGAGGAUCACCCAUGUCAGACAACGACUACACAAAGUCAUGUAGAAGGAAGUCAAG [Islarele] (puzzle: Exclusion 3),24.1 nM,,,,24.3 nM,26 nM

Sequence,apparent KD of MS2 coat protein [1],apparent KD of MS2 coat protein (input ligand: FMN 200 uM),apparent KD of MS2 coat protein [2],apparent KD of MS2 coat protein (input ligand: none),apparent KD of MS2 coat protein [3],apparent KD of MS2 coat protein [4]
"UGCAAGCUUUUGAGAUCCUACAUGAGGAUCACCCAUGUGCUCGUCUUAUAACGUACUGUGACGAAAGUCACGGUACG [JL TOV1 3.97] (Eterna round: R97, puzzle: Sensor, turn-off variant 1)",,184 nM,,222 nM,,
"AAGUACCGUCACGAUAGUGAUGGUACAACAAGUGAAUGUACAUGAGGAUCACCCAUGUCCUCUUUUGCUCGUCUUAU [Sensor 3 - 92] (puzzle: Sensor v3, turn-off variant 2)",30.9 nM,,,,151 nM,184 nM
"CAGUACGGAGGAUAUACAUGAGGAUCACCCAUGUACGCGGGUGUCACUGGGAGAACUUGUAGAAGGCCGAGUCC [Eternabot (L1) Solution 8] (Eterna round: R97, puzzle: Exclusion 3)",,196 nM,,107 nM,,
"UGCAAGCUUUUAAGAUCCUACAUGAGGAUCACCCAUGUGGCUCGUCUUAUACGUACUGUGACGAAAGUCACGGUACG [JL TOV1 3.98] (Eterna round: R97, puzzle: Sensor, turn-off variant 1)",,25.4 nM,,22.8 nM,,
"GAUUAUGCGAGCUUUAGGGACAUGAGGAUCACCCAUGUUCGUCUUAUUAGUCUAAAUACGCUGACAUACCUAAAUCU [JMF 94] (puzzle: Sensor v3, turn-off variant 1)",18 nM,,,,14 nM,18.2 nM
"AAGAGUAGAGGAUAUUGUUUAUGGCACAUGAGGAUCACCCAUGUAGCGAGAGUGGUGCCACAAGAAGGUUGCAUGA [Eternabot (L2) Solution 71] (Eterna round: R97, puzzle: Exclusion 5)",,42.3 nM,,52.5 nM,,
"AUAAAUCAUGUAGGAUAUGCGUGGAGAAACUAUGCAGAAGGACAUGAGGAUCACCCAUGUGCUUCCGUCUGCGUACAGAUGGUA [Mat - Exclusion NG 1 - Mod of JL - D9] (Eterna round: R96, puzzle: Exclusion NG 1)",,134 nM,20.1 nM,27.3 nM,,
AAUCCACAUGAGGAUCACCCAUGUCAGGAUAUGGUGACGCGGGUUUCGGUGCGUGUUGCCAGAAGGGACGGCUG (puzzle: Exclusion 1),23.8 nM,,,,,
"CCGGAUUAGUAGGAUAUAGGAGUCGAUAGACACCUAGAAGGACUAACAUGAGGAUCACCCAUGUGUCCUACCGG [Mod of Eli 19 - Jieux - Exclusion 6] (Eterna round: R97, puzzle: Exclusion 6)",,39 nM,,16.7 nM,,
AUGGACGCAGGAUAUACAUGAGGAUCACCCAUGUGAGGUUGGUAAGUAGGAAGUGAAGGUAGAAGGGCGAGAGA [JR_Exclu3_Sub097] (puzzle: Exclusion 3),74.8 nM,,,,107 nM,84.3 nM
CAAAACAGAGGAUAUACAUUUCCUCACCGCCAAAUGGCGGAACAUGAGGAUCACCCAUGUAGAAGGCUGGAAAA [Gesous] (puzzle: Exclusion 2),114 nM,,,,292 nM,118 nM
"CGGAGCAGAGGGAGAUCCAACAUGAGGAUCACCCAUGUCUCAUAAGCUUUUUGCUCAUCUUAUUGUACCUUGGUGCU [JL ViennaUCT Edcesobi mod 5] (puzzle: Sensor v3, turn-off variant 1)",15.4 nM,,,,37.3 nM,46.4 nM
GAAAAGGUAGGAUAUACGAAAAAAAAGGCUAGAAAAAAAACACAUGAGGAUCACCCAUGUAGAAGGACCAAAAG [salish99_ex2_r3_068] (puzzle: Exclusion 2),28.8 nM,,,,28.7 nM,24 nM
"AUAACAUGCUGGUGAUCAUACAUGAGGAUCACCCAUGUAACAAGCUUUUUGCUCGUCUUAUAAGAUCACCAGCAUGU [Stov1/9-A2] (Eterna round: R97, puzzle: Sensor, turn-off variant 1)",,14.8 nM,,15.4 nM,,
"CUUUACAAGCUAAGAUCCUACAUGAGGAUCACCCAUGUGGUCCGGUGACGUGAGUCACCGGACUUAGCUCGUCUUGA [salish99_S_TOV1_R5_093] (Eterna round: R97, puzzle: Sensor, turn-off variant 1)",,32 nM,,39.1 nM,,
"UAAGCAAGCGAAAGAUCCCACAUGAGGAUCACCCAUGUGCUCGUCUUAUAAGGUACUGUGACGAAAGUCACGGUACC [Sensor 3, v1 - 91 v22] (Eterna round: R97, puzzle: Sensor, turn-off variant 1)",,140 nM,,128 nM,,
"AGAGAUGCCCAUGGCCGCAAGCUUUUUGCUUGUCUUACCACAUGAGGAUCACCCAUGUGACAUGGGCUCCUUAUAAU [Essoator] (puzzle: Sensor v3, turn-off variant 2)",9.99 nM,,,,13.5 nM,12.1 nM
